Data on 6 molecules can be found in patent US7264954B2, “Lipoxygenase” (Novozymes A/S, priority 2001, dated 2007).

Series [1] relates to CCCCC/C=C\C/C=C\C/C=C\C/C=C\CCCC(=O)O. The experiment in a line: purified protein, by the assay type.
In series [2] the test system is CCCCC/C=C\C/C=C\CCCCCCCC(=O)OC. The experiment in a line: purified protein, by the assay type.
The test system of series [3] is CCCCC/C=C\C/C=C\CCCCCCCCO
The experiment in a line: purified protein, by the assay type.

Series [4] relates to CCCCC/C=C\C/C=C\CCCCCCCCOC(C)=O. The experiment in a line: purified protein, by the assay type.
Series [5] concerns CCCCC/C=C\C/C=C\CCCCCCCC(=O)Cl. The experiment in a line: purified protein, by the assay type.
For a further series, the target named is M. salvinii lipoxygenase (Nakataea oryzae, UniProt P0CT92). Particulars: per substrate.
For a further series, the target named is T1, soybean lipoxygenase (Glycine max, UniProt P08170).
T1 sequence (P08170 1-839): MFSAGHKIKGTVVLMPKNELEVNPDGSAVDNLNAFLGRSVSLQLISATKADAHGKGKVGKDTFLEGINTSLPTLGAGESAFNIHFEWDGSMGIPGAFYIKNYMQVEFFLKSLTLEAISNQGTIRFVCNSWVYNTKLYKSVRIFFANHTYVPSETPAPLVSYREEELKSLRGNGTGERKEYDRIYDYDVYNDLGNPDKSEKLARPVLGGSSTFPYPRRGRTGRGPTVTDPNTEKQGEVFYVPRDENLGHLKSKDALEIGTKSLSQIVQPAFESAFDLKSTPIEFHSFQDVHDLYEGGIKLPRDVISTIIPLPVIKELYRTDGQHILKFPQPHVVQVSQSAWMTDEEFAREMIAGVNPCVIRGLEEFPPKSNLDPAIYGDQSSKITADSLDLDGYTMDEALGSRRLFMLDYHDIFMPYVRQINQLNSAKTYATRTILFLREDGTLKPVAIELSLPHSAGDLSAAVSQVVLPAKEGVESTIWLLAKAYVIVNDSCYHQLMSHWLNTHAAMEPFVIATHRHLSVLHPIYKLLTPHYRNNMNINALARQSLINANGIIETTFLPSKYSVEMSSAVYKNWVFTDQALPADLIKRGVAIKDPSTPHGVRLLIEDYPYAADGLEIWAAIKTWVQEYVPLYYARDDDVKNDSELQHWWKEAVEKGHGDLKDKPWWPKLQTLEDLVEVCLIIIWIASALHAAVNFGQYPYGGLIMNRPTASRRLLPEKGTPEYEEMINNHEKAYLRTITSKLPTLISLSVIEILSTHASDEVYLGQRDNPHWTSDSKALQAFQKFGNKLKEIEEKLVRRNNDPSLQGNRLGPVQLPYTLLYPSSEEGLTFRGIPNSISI
In words: Substrate kinetic parameters with soybean lipoxygenase (comparison). Format: biochemical.

Series [6] can be described thus: Bleaching assay, β-carotene pigment solution. Format: biochemical. How it is done:
(§1) Bleaching effect by lipoxygenase was examined spectrophotometrically at 25° C. by following the absorbance at 470 nm. The pigment solution was prepared as follows. 150 ul of stock pigment solution (1 mg each pigment in 1 ml chloroform) was evaporated to be dry. Then 30 ml of the buffer (50 mM KH2PO4NaHPO4, pH 7.0) with 0.3% of Tween 20 was added slowly and the pigment was dissolved.
(§2) The bleaching effect of M. salvinii LOX was examined. Soybean L1 was included for comparison. β-carotene and astaxanthin were used as pigments.

A short description of series [7]: Bleaching assay, astaxanthin pigment solution. Format: biochemical. The procedure: as §1, §2

Sequence of M. salvinii lipoxygenase (P0CT92 18-617): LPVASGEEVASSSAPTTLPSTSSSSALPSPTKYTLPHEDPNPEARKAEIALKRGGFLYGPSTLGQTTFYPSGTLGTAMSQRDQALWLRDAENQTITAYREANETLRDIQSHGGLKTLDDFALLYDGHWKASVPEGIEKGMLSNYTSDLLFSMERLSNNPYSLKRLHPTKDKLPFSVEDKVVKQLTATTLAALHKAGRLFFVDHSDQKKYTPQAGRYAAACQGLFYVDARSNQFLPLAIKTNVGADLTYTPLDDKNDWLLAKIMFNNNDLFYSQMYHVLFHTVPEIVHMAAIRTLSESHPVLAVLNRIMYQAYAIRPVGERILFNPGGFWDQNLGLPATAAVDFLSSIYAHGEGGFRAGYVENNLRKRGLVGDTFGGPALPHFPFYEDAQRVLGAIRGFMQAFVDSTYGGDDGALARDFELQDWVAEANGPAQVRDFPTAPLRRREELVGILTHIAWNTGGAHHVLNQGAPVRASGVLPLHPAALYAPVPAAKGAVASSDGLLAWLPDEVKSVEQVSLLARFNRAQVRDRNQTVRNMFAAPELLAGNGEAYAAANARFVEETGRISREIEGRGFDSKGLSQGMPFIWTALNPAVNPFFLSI

As to “M. salvinii lipoxygenase (Nakataea oryzae)”, the Km is 5.5 µM in [1]; 30 µM in [2]; 8 µM in [3]; 9 µM in [4]; 12 µM in series [5]. The Vmax in [1] is 2.44 µmol/min/mg; in series [2], 0.82 µmol/min/mg; in [3], 1.4 µmol/min/mg; in series [4], 0.77 µmol/min/mg; in [5], 0.97 µmol/min/mg. Further, the Vmax/Km in [1] is 446000 µL/min/mg; in series [2] it was 26000 µL/min/mg; in [3], 175000 µL/min/mg; in series [4] it was 85000 µL/min/mg; in series [5], 80000 µL/min/mg.
As to `CC/C=C\C/C=C\C/C=C\CCCCCCCC(=O)O` [Linolenic acid], the Michaelis constant (Km) on M. salvinii lipoxygenase is 0.4 µM.
On to `CCCCC/C=C/C/C=C/CCCCCCCC(=O)O` [Linoelaidic acid], for which, at M. salvinii lipoxygenase, the KM entry is given as “No activity”, the Vmax entry is on record as “No activity” and the Vmax/KM result is on record as “No activity”.
Regarding `CCCCC/C=C\C/C=C\CCCCCCCC(=O)O` [Na linoleate], at M. salvinii lipoxygenase, the Km came to 0.41 µM and the Vmax came to 2.07 µmol/min/mg.
Consider `CCCCC/C=C\C/C=C\CCCCCCCC(=O)O` [Linoleic acid], for which, at soybean lipoxygenase, the Michaelis-Menten constant (Km) was 230 µM and the Vmax was determined as 12.3 µmol/min/mg. In addition, on M. salvinii lipoxygenase, the Km came out at 1 µM and the Vmax was determined as 2.63 µmol/min/mg.

B1: Soybean L1: Soybean lipoxygenase (type I-B) (cat.# L7315) supplied by Sigma, included for comparison (protein, UniProt P08170 1-839, looked up)
Seed linoleate …: MFSAGHKIKGTVVLMPKNELEVNPDGSAVDNLNAFLGRSVSLQLISATKADAHGKGKVGKDTFLEGINTSLPTLGAGESAFNIHFEWDGSMGIPGAFYIKNYMQVEFFLKSLTLEAISNQGTIRFVCNSWVYNTKLYKSVRIFFANHTYVPSETPAPLVSYREEELKSLRGNGTGERKEYDRIYDYDVYNDLGNPDKSEKLARPVLGGSSTFPYPRRGRTGRGPTVTDPNTEKQGEVFYVPRDENLGHLKSKDALEIGTKSLSQIVQPAFESAFDLKSTPIEFHSFQDVHDLYEGGIKLPRDVISTIIPLPVIKELYRTDGQHILKFPQPHVVQVSQSAWMTDEEFAREMIAGVNPCVIRGLEEFPPKSNLDPAIYGDQSSKITADSLDLDGYTMDEALGSRRLFMLDYHDIFMPYVRQINQLNSAKTYATRTILFLREDGTLKPVAIELSLPHSAGDLSAAVSQVVLPAKEGVESTIWLLAKAYVIVNDSCYHQLMSHWLNTHAAMEPFVIATHRHLSVLHPIYKLLTPHYRNNMNINALARQSLINANGIIETTFLPSKYSVEMSSAVYKNWVFTDQALPADLIKRGVAIKDPSTPHGVRLLIEDYPYAADGLEIWAAIKTWVQEYVPLYYARDDDVKNDSELQHWWKEAVEKGHGDLKDKPWWPKLQTLEDLVEVCLIIIWIASALHAAVNFGQYPYGGLIMNRPTASRRLLPEKGTPEYEEMINNHEKAYLRTITSKLPTLISLSVIEILSTHASDEVYLGQRDNPHWTSDSKALQAFQKFGNKLKEIEEKLVRRNNDPSLQGNRLGPVQLPYTLLYPSSEEGLTFRGIPNSISI
In the case of B1, the ΔA470/min in series [6] (β-carotene) is recorded as 0.00005; in [7] (Astaxanthin) it was 0.0021. The “bleaching effect (in words)” value in series [6] (β-carotene and astaxanthin pigment solutions) is “little effect on bleaching”. For the same molecule, the values for the LOX activity in series [6] (β-carotene experiment) and in [7] (Astaxanthin experiment) were 1.962 and 2.018, respectively. For the same molecule, the “absorbance at 470 nm” value is given as 0.3575 in [6] (β-carotene, time 0 min, 25° C., pH 7.0); 0.3616 in [6] (β-carotene, time 0.4 min); 0.3601 in [6] (β-carotene, time 0.8 min); 0.362 in series [6] (β-carotene, time 1.2 min); 0.3602 in series [6] (β-carotene, time 1.4 min); 0.3602 in [6] (β-carotene, time 1.8 min). Besides, the “absorbance at 470 nm” value amounted to 0.3595 in [6] (β-carotene, time 2.2 min); 0.3595 in series [6] (β-carotene, time 2.6 min); 0.3594 in [6] (β-carotene, time 3 min); 0.5026 in series [7] (Astaxanthin, time 0 min, 25° C., pH 7.0); 0.5029 in series [7] (Astaxanthin, time 0.4 min); 0.505 in [7] (Astaxanthin, time 0.8 min). Besides, the “absorbance at 470 nm” value in series [7] (Astaxanthin, time 1 min) was found to be 0.5025; in series [7] (Astaxanthin, time 1.4 min), 0.5013; in series [7] (Astaxanthin, time 1.8 min) it was 0.4993; in series [7] (Astaxanthin, time 2.2 min), 0.4985; in series [7] (Astaxanthin, time 2.6 min), 0.4986; in [7] (Astaxanthin, time 3 min), 0.498.
